B1: YBL085W 849-862 (peptide)
chain: KYSFKLVPPQPGSK
B2: YBR235W 48-61 (peptide)
chain: KVSSKYDPDNPNKD
B3: YDR516C 56-69 (peptide)
chain: KTVDKGLPMIPTYV
B4: YBL017C 684-697 (peptide)
chain: KTKKKTVPVKPLQL
B5: YLR235C 75-88 (peptide)
chain: LAGIRLVPVLPILL
B6: YLR133W 510-523 (peptide)
chain: KYIIKTEPESPEED
B7: YKR027W 747-760 (peptide)
chain: LAYERPLPDLPSTI
B8: YJL095W 802-815 (peptide)
chain: LAPKREAPKPPANT
B9: YBR136W 25-38 (peptide)
chain: KVQIKKVPTDPSSS
B10: YNL071W 132-145 (peptide)
chain: KTSTKAQPAEPQAE
B11: YNL271C 1679-1692 (peptide)
chain: KVLIKTLPVLPEAR
B12: YPR171W 350-363 (peptide)
chain: LAAHKTKPSIPPKK
B13: YGR033C 56-69 (peptide)
chain: KTRNKPKPLWPQVK
B14: YIL131C 136-149 (peptide)
chain: KVNFRRIPTGPDSP
B15: YKL170W 23-36 (peptide)
chain: KVIRKGSPKSPAMV
B16: YCL040W 56-69 (peptide)
chain: LASDKGLPMIPAFV

Experiments:
Assay in all cases: SPOT array
[1] = molecular target: T1, Rvs167 SH3 (RV167_YEAST), P39743
T1 chain: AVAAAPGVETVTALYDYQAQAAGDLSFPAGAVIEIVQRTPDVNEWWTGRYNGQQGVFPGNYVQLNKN

[2] = molecular target: Sho1 SH3 (SHO1_YEAST), P40073
Chain of Sho1 SH3 (SHO1_YEAST), P40073 (P40073 295-366): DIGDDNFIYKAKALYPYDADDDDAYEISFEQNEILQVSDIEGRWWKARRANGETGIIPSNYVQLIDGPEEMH

[3] = molecular target: T2, Boi1 SH3 (BOI1_YEAST), P38041
T2 chain: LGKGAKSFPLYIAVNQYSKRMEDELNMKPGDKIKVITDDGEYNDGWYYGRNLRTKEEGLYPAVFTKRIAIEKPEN

[4] = molecular target: T3, Yhr016c SH3 (YSC84_YEAST), P32793
T3 chain: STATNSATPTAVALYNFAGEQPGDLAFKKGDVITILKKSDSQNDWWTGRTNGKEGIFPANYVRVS

[5] = molecular target: T4, Myo5 SH3 (MYO5_YEAST), Q04439
T4 chain: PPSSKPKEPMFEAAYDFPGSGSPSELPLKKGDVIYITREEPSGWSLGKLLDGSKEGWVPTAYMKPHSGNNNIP

[6] = molecular target: T5, Boi2 SH3 (BOI2_YEAST), P39969
T5 chain: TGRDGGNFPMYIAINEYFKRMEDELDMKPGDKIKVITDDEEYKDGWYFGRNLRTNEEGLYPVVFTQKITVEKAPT

[7] = molecular target: T6, Yfr024 SH3 (LSB3_YEAST), P43603
T6 chain: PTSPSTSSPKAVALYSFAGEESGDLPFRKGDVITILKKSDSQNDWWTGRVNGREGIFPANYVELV

Row | Binder | normalised SPOT signal, Boehringer light units (BLU); mean over the file's lines of this peptide [1] | normalised SPOT signal, Boehringer light units (BLU); mean over the file's lines of this peptide [2] | normalised SPOT signal, Boehringer light units (BLU); mean over the file's lines of this peptide [3] | normalised SPOT signal, Boehringer light units (BLU); mean over the file's lines of this peptide [4] | normalised SPOT signal, Boehringer light units (BLU); mean over the file's lines of this peptide [5] | normalised SPOT signal, Boehringer light units (BLU); mean over the file's lines of this peptide [6] | normalised SPOT signal, Boehringer light units (BLU); mean over the file's lines of this peptide [7]
1 | B1 | 40.4 | 70.4 | 198 | 29.7 | 219 | 20 | 104
2 | B2 | 95.8 | 31.3 | 127 | 32.1 | 434 | 23.8 | 44.7
3 | B3 | 24.1 | 8310 | 14.3 | 20.1 | 76.8 | 5 | 11.9
4 | B4 | 44.3 | 34.1 | 1240 | 38 | 359 | 67.6 | 179
5 | B5 | 12800 | 22.2 | 63.1 | 493 | 152 | 22.4 | 2480
6 | B6 | 34 | 55.5 | 100 | 34.1 | 246 | 39.6 | 6.9
7 | B7 | 3530 | 64100 | 41.8 | 8470 | 132 | 14.3 | 4460
8 | B8 | 69.8 | 71.2 | 179 | 29.7 | 116000 | 28.5 | 47.5
9 | B9 | 44.5 | 28.2 | 1460 | 13.5 | 191 | 64.7 | 9.9
10 | B10 | 72.7 | 6.5 | 84.2 | 43.6 | 167 | 3.7 | 162
11 | B11 | 84.2 | 3050 | 142 | 0 | 237 | 5.4 | 251
12 | B12 | 16.5 | 76.5 | 477 | 36 | 249 | 18.8 | 1730
13 | B13 | 56.8 | 115 | 1200 | 35 | 262 | 43.4 | 178
14 | B14 | 160 | 119 | 1120 | 44.4 | 503 | 24.3 | 234
15 | B15 | 200 | 49.9 | 457 | 8.7 | 496 | 0 | 180
16 | B16 | 51.5 | 15200 | 94.4 | 62.8 | 79.9 | 134 | 48.3

From article PMC314469, “Protein Interaction Networks by Proteome Peptide Scanning” (PLoS Biology, 2004)
